Source: paper PMC6297230, “Structural basis of meiotic telomere attachment to the nuclear envelope by MAJIN-TERB2-TERB1” (Nature Communications, 2018)

How the values were obtained:
Assay in all cases: EMSA
Conditions in all cases: apparent, Hill fit; EMSA: 20 mM Tris pH 8.0, 250 mM KCl, 1 h at 4 °C, 3% glycerol, 0.5% agarose in 0.5x TBE; 25 nM FAM-DNA for Kd (protein as oligomer), 0.3 uM DNA for display
[1] = target: MAJIN Core;TERB2 C (human;human) (UniProt Q3KP22+Q8NHR7)
[2] = target: MAJIN dTM;TERB2 C (human;human) (UniProt Q3KP22+Q8NHR7)
MAJIN dTM;TERB2 C (human;human), sequence (Q3KP22 whole entry, chain 1 of 2): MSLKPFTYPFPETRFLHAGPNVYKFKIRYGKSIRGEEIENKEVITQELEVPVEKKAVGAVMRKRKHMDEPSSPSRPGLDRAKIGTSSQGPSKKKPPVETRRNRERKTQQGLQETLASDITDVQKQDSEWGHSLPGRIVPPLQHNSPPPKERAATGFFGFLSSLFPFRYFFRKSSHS
MAJIN dTM;TERB2 C (human;human), sequence (Q8NHR7 168-220, chain 2 of 2): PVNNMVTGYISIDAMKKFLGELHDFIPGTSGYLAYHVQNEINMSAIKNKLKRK

[3] = target: MAJIN dTM;TERB2 C-Tr (human;human) (UniProt Q3KP22+Q8NHR7)
MAJIN dTM;TERB2 C-Tr (human;human), sequence (Q3KP22 whole entry, chain 1 of 2): as the sequence (Q3KP22 whole entry, chain 1 of 2) above
MAJIN dTM;TERB2 C-Tr (human;human), sequence (Q8NHR7 168-207, chain 2 of 2): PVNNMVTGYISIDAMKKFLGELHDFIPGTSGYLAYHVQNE

[4] = target: MAJIN Core;TERB2 full length;TERB1 TRFB (human;human;human) (UniProt Q3KP22+Q8NHR7+Q8NA31)
MAJIN Core;TERB2 full length;TERB1 TRFB (human;human;human), sequence (Q3KP22 whole entry, chain 1 of 3): as the sequence (Q3KP22 whole entry, chain 1 of 2) above
MAJIN Core;TERB2 full length;TERB1 TRFB (human;human;human), sequence (Q8NHR7 whole entry, chain 2 of 3): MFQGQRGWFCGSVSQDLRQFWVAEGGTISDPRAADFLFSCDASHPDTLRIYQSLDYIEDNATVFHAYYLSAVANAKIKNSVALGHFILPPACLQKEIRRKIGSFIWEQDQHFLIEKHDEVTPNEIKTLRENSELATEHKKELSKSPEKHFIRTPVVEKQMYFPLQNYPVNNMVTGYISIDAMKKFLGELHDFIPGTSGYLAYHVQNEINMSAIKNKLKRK
MAJIN Core;TERB2 full length;TERB1 TRFB (human;human;human), sequence (Q8NA31 561-658, chain 3 of 3): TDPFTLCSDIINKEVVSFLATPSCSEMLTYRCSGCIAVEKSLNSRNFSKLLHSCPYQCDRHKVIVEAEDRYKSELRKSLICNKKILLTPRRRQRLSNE

MAJIN Core;TERB2 C (human;human), sequence (Q3KP22 whole entry, chain 1 of 2): as the sequence (Q3KP22 whole entry, chain 1 of 2) above
MAJIN Core;TERB2 C (human;human), sequence (Q8NHR7 168-220, chain 2 of 2): as the sequence (Q8NHR7 168-220, chain 2 of 2) above

Question: How did the Kd [1] turn out when “AATTCTCATTTTACTTACCGGACGCTATTAGCAGTGGCAGATTGTACTGAGAGTGCACCATATGCGGTGTGAAATACCGCACAGATGCGT [Random ssDNA (90 nt)]” was run?
Answer: The Kd was 0.9 µM.

Question: How did the Kd [1] turn out when “TTAGGGTTAGGGTTAGGGTTAGGGTTAGGGTTAGGGTTAGGGTTAGGGTTAGGGCGACGACCCTAACCCTAACCCTAACCCTAACCCTAACCCTAACCCTAACCCTAACCCTAA [Telomeric hairpin DNA (54 bp)]” was run?
Answer: Its Kd is 0.61 µM.

Question: For “TTCCAGGGTTCCATGGAGATAAAGGTCAATAAATTAGAGTTAGAACTAGAAAGTGCCAAACAGAAATTTGGAGAAATCACAGACACCTATCAGAAAGAAATTGAGGACAAAAAGATATCAGAATAATAACCATGGATATCGAATT (double strand) [FAM random dsDNA (145 bp)]”, which Kd [2] is on record?
Answer: Its Kd is 0.12 µM.

Question: What about the Kd [1] of the same sequence?
Answer: The Kd was 0.55 µM.

Question: And the Kd [3]?
Answer: The Kd was 0.2 µM.

Question: What about the Kd [4] of the same sequence?
Answer: Its Kd is 0.46 µM.

Question: With “TTTTTTTTTTTTTTTTTTTTTTTTTTTTTTTTTTTTTTTTTTTTTTTTTTTTTTTTTTTTTTTTTTTTTTTTTTTTTTTTTTTTTTTTTTTTTTTTTTTT [Poly(dT) (100 nt)]” as the sequence, how does the Kd [1] read?
Answer: The Kd was 0.51 µM.
